According to the supplement of paper PMC9732359:
± gives the uncertainty stated by the source.

Experiment: protein stability index of a GFP-peptide fusion (yeast GPS) (PSI 1-4); higher = more stable; sorted into four equal gates, so the index is relative within each strain
Summary of the method: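 Peptides tiling yeast proteins in 17-residue segments were fused downstream of GFP, with Cherry expressed from the same plasmid. As a pooled library in yeast, mid-log cultures grown in leucine-free medium were sorted into four equal gates by GFP/Cherry fluorescence ratio. Gate plasmids were PCR-amplified and Illumina-sequenced, and barcodes linked reads to strains. Each peptide received a protein stability index equal to the sum of each gate's read frequency times its gate number.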

TLRKELEQIQVQLKDAN [YIL149C/MLP2]
protein stability index (doa10∆): 2.51 ± 0.1 | protein stability index (pdr5∆): 2.96 ± 0.093 | protein stability index (san1∆): 2.67 ± 0.096 | protein stability index (ubr1∆): 2.24 ± 0.051

LYQSLTPQQLQMIQQRH [SNF5]
protein stability index (doa10∆): 1.77 ± 0.037 | protein stability index (pdr5∆): 2.24 ± 0.04 | protein stability index (san1∆): 1.69 ± 0.053 | protein stability index (ubr1∆): 2.08 ± 0.033

LKNKNFKCQEKDKGVYV [SIR2]
protein stability index (doa10∆): 3.53 ± 0.22 | protein stability index (pdr5∆): 3.03 ± 0.093 | protein stability index (san1∆): 3.38 ± 0.077 | protein stability index (ubr1∆): 3.27 ± 0.17

QAQAQAQANNNNNGLPQ [GAL11]
protein stability index (doa10∆): 3.04 ± 0.037 | protein stability index (pdr5∆): 3.1 ± 0.035 | protein stability index (san1∆): 2.952 ± 0.029 | protein stability index (ubr1∆): 3.05 ± 0.033

HILPEVPPVENFPVRQW [TAF14]
protein stability index (doa10∆): 2.71 ± 0.12 | protein stability index (pdr5∆): 3.05 ± 0.088 | protein stability index (san1∆): 2.95 ± 0.073 | protein stability index (ubr1∆): 3.05 ± 0.055

VKTKTIELIDYDKLPAG [RET1]
protein stability index (doa10∆): 2.98 ± 0.12 | protein stability index (pdr5∆): 3.42 ± 0.13 | protein stability index (san1∆): 2.67 ± 0.19 | protein stability index (ubr1∆): 2.95 ± 0.082

MLKYRRLFIGDQNNKKM [SNF2]
protein stability index (doa10∆): 2.62 ± 0.097 | protein stability index (pdr5∆): 2.82 ± 0.073 | protein stability index (san1∆): 2.47 ± 0.094 | protein stability index (ubr1∆): 2.63 ± 0.057

QKKIQINKEMGELNSKL [SMC3]
protein stability index (pdr5∆): 3.34 ± 0.21 | protein stability index (ubr1∆): 3.15 ± 0.13

QRGEDDLTFKLADILKA [RPO21]
protein stability index (doa10∆): 2.34 ± 0.082 | protein stability index (pdr5∆): 2.61 ± 0.1 | protein stability index (san1∆): 2.45 ± 0.066 | protein stability index (ubr1∆): 2.1 ± 0.046

KNVRTRIKLATTSERVS [RRI1]
protein stability index (doa10∆): 2.6 ± 0.058 | protein stability index (pdr5∆): 2.56 ± 0.058 | protein stability index (san1∆): 2.8 ± 0.086 | protein stability index (ubr1∆): 2.36 ± 0.074

CANCVKERIVRAFLIEE [RPL34B]
protein stability index (pdr5∆): 3.47 ± 0.26

RSKFGGDFLDFQVHERL [ARP7]
protein stability index (doa10∆): 3.15 ± 0.11 | protein stability index (pdr5∆): 3.11 ± 0.1 | protein stability index (san1∆): 3.5 ± 0.075 | protein stability index (ubr1∆): 3.32 ± 0.075

QTRAKLLDNEIRIFRSE [RPT5]
protein stability index (doa10∆): 3.15 ± 0.12 | protein stability index (pdr5∆): 3.37 ± 0.093 | protein stability index (san1∆): 3.22 ± 0.051 | protein stability index (ubr1∆): 2.95 ± 0.056

DVLINELLDQVTLGREG [CDC53]
protein stability index (doa10∆): 3.06 ± 0.078 | protein stability index (pdr5∆): 3.1 ± 0.073 | protein stability index (san1∆): 3.06 ± 0.08 | protein stability index (ubr1∆): 3.17 ± 0.066

FTAGARAKIVKAGGECI [RPL18A]
protein stability index (doa10∆): 1.29 ± 0.081 | protein stability index (pdr5∆): 1.27 ± 0.067 | protein stability index (san1∆): 1.18 ± 0.17 | protein stability index (ubr1∆): 1.13 ± 0.061

SSPDTMKLTDLLSLINS [SNF12]
protein stability index (doa10∆): 2.69 ± 0.042 | protein stability index (pdr5∆): 2.73 ± 0.039 | protein stability index (san1∆): 2.81 ± 0.047 | protein stability index (ubr1∆): 2.67 ± 0.036

FQDYLTQQAVNLEKNYL [IRR1]
protein stability index (doa10∆): 2.15 ± 0.11 | protein stability index (pdr5∆): 2.12 ± 0.11 | protein stability index (san1∆): 2.02 ± 0.16 | protein stability index (ubr1∆): 1.96 ± 0.11

EKAKSAGTQSSKFSKQQ [RPL24A]
protein stability index (doa10∆): 3.15 ± 0.064 | protein stability index (pdr5∆): 3.23 ± 0.076 | protein stability index (san1∆): 3.32 ± 0.047 | protein stability index (ubr1∆): 3.12 ± 0.067

EFMAGFNIISMTLKEMY [SMC4]
protein stability index (pdr5∆): 2.83 ± 0.24 | protein stability index (san1∆): 3.21 ± 0.11 | protein stability index (ubr1∆): 3.21 ± 0.089

LLICIGTSLKVAPVSEI [SIR2]
protein stability index (doa10∆): 1.91 ± 0.11 | protein stability index (pdr5∆): 2.01 ± 0.077 | protein stability index (san1∆): 2.29 ± 0.18 | protein stability index (ubr1∆): 1.79 ± 0.05

RASLVPGTVLILLAGRF [RPL6A]
protein stability index (doa10∆): 1.67 ± 0.054 | protein stability index (pdr5∆): 1.93 ± 0.084 | protein stability index (san1∆): 1.78 ± 0.1 | protein stability index (ubr1∆): 1.75 ± 0.082

IGTADIFIRQLKENEEN [BRR2]
protein stability index (doa10∆): 3.61 ± 0.12 | protein stability index (pdr5∆): 3.1 ± 0.3 | protein stability index (ubr1∆): 1.36 ± 0.1

DNTVRTSANGIVQFTYG [RPO31]
protein stability index (doa10∆): 2.67 ± 0.1 | protein stability index (pdr5∆): 2.76 ± 0.1 | protein stability index (san1∆): 2.25 ± 0.17 | protein stability index (ubr1∆): 2.53 ± 0.11

LHRLTPKNVKGEEDADE [RPN1]
protein stability index (doa10∆): 3.65 ± 0.26

ETITTKRVPNPNFLGNC [SWP82]
protein stability index (doa10∆): 2.68 ± 0.054 | protein stability index (pdr5∆): 2.58 ± 0.047 | protein stability index (san1∆): 2.18 ± 0.05 | protein stability index (ubr1∆): 2.32 ± 0.048

YHLTKAVKLGDLKKFTS [RPN3]
protein stability index (doa10∆): 1.77 ± 0.065 | protein stability index (pdr5∆): 1.8 ± 0.062 | protein stability index (san1∆): 1.54 ± 0.11 | protein stability index (ubr1∆): 1.78 ± 0.052

QTIPIQIYGFEGLNQRN [YGR119C/NUP57]
protein stability index (doa10∆): 2.64 ± 0.27 | protein stability index (san1∆): 2.52 ± 0.16 | protein stability index (ubr1∆): 3.08 ± 0.18

GGIVTVRSEMGEPIHKI [FAS1]
protein stability index (doa10∆): 3.29 ± 0.18 | protein stability index (pdr5∆): 2.91 ± 0.21

SADDDVNNGNIPSQRGT [SIR3]
protein stability index (doa10∆): 2.97 ± 0.24 | protein stability index (pdr5∆): 3.01 ± 0.1 | protein stability index (san1∆): 2.67 ± 0.11 | protein stability index (ubr1∆): 2.86 ± 0.11

KLEPKEIVRDILHTKES [SIR4]
protein stability index (doa10∆): 2.92 ± 0.1 | protein stability index (pdr5∆): 3.1 ± 0.14 | protein stability index (san1∆): 2.5 ± 0.18 | protein stability index (ubr1∆): 3.04 ± 0.086

NKSTSSEAEYSKDIETL [YIL149C/MLP2]
protein stability index (doa10∆): 3.19 ± 0.089 | protein stability index (pdr5∆): 2.97 ± 0.099 | protein stability index (san1∆): 3.21 ± 0.062 | protein stability index (ubr1∆): 3.26 ± 0.072

AVDKVISGYKKFSSTSR [RPT1]
protein stability index (doa10∆): 3.46 ± 0.27 | protein stability index (pdr5∆): 3.87 ± 0.23 | protein stability index (san1∆): 3.21 ± 0.16 | protein stability index (ubr1∆): 3.74 ± 0.14

SDEEESVLDEQEQYQTN [SNU114]
protein stability index (doa10∆): 3.11 ± 0.14 | protein stability index (pdr5∆): 3.25 ± 0.079 | protein stability index (san1∆): 3.25 ± 0.11 | protein stability index (ubr1∆): 3.31 ± 0.069

YMRLWEINETEFIRCGC [RMP1]
protein stability index (doa10∆): 3.31 ± 0.13 | protein stability index (pdr5∆): 3.46 ± 0.14 | protein stability index (san1∆): 3.55 ± 0.13 | protein stability index (ubr1∆): 3.33 ± 0.049

GPGGQAALRALARSGLR [RPS14B]
protein stability index (doa10∆): 2.41 ± 0.081 | protein stability index (pdr5∆): 2.59 ± 0.11 | protein stability index (san1∆): 2.22 ± 0.11 | protein stability index (ubr1∆): 2.48 ± 0.085

TSAKEPSENDVFYRMQQ [RPO31]
protein stability index (doa10∆): 3.08 ± 0.082 | protein stability index (pdr5∆): 3.08 ± 0.092 | protein stability index (san1∆): 3.13 ± 0.14 | protein stability index (ubr1∆): 2.7 ± 0.099

VQIKDVNDRYQIPTPNN [CSI1]
protein stability index (doa10∆): 1.72 ± 0.05 | protein stability index (pdr5∆): 2.25 ± 0.064 | protein stability index (san1∆): 1.75 ± 0.12 | protein stability index (ubr1∆): 1.73 ± 0.049

QQLDSFNQFVDYTLQDI [RPB2]
protein stability index (doa10∆): 2.48 ± 0.094 | protein stability index (pdr5∆): 2.64 ± 0.1 | protein stability index (san1∆): 2.75 ± 0.052 | protein stability index (ubr1∆): 2.43 ± 0.086

SKKRQAEKLVPLPICHA [YML031W/NDC1]
protein stability index (doa10∆): 2.33 ± 0.12 | protein stability index (pdr5∆): 2.5 ± 0.049 | protein stability index (san1∆): 2.39 ± 0.087 | protein stability index (ubr1∆): 2.39 ± 0.093

FPVDPTTPVKLGPGIYC [RRP40]
protein stability index (doa10∆): 2.41 ± 0.058 | protein stability index (pdr5∆): 2.48 ± 0.056 | protein stability index (san1∆): 2.4 ± 0.052 | protein stability index (ubr1∆): 2.2 ± 0.047

EEPIKKLCYVLGVEDIT [RET1]
protein stability index (san1∆): 3.08 ± 0.15

GILLETISVPQIRDVME [RRP6]
protein stability index (doa10∆): 2.74 ± 0.072 | protein stability index (pdr5∆): 2.56 ± 0.06 | protein stability index (san1∆): 2.89 ± 0.056 | protein stability index (ubr1∆): 2.64 ± 0.067

LGYKAKQGFVIYRVRVR [RPL15A]
protein stability index (doa10∆): 2.22 ± 0.1 | protein stability index (pdr5∆): 2.04 ± 0.11 | protein stability index (san1∆): 2.06 ± 0.15 | protein stability index (ubr1∆): 1.84 ± 0.11

FIVSGTASDQLFGMCES [PUP3]
protein stability index (doa10∆): 2.41 ± 0.046 | protein stability index (pdr5∆): 2.46 ± 0.045 | protein stability index (san1∆): 2.63 ± 0.056 | protein stability index (ubr1∆): 2.53 ± 0.039

EVILVDPQHKAIRRDAR [RPL15A]
protein stability index (doa10∆): 2.87 ± 0.088 | protein stability index (pdr5∆): 3.15 ± 0.13 | protein stability index (san1∆): 2.78 ± 0.28 | protein stability index (ubr1∆): 2.97 ± 0.17

TGKTLLAKAVAATIGAN [RPT4]
protein stability index (doa10∆): 1.46 ± 0.074 | protein stability index (pdr5∆): 1.75 ± 0.084 | protein stability index (san1∆): 1.68 ± 0.16 | protein stability index (ubr1∆): 2.08 ± 0.13

GRLSLRSLTAYAPNLML [QCR10]
protein stability index (doa10∆): 1.26 ± 0.041 | protein stability index (pdr5∆): 1.9 ± 0.051 | protein stability index (san1∆): 1.63 ± 0.081 | protein stability index (ubr1∆): 1.42 ± 0.06

YPVYTRLRTLCRDSDDH [DIS3]
protein stability index (doa10∆): 2.56 ± 0.2 | protein stability index (pdr5∆): 2.77 ± 0.13 | protein stability index (san1∆): 2.29 ± 0.24 | protein stability index (ubr1∆): 2.95 ± 0.046

EPLAIALSMGKSSAFVI [ARP7]
protein stability index (doa10∆): 1.48 ± 0.076 | protein stability index (pdr5∆): 2.02 ± 0.071 | protein stability index (san1∆): 1.67 ± 0.1 | protein stability index (ubr1∆): 1.77 ± 0.089

KIEGCISQVSSIHAIGS [RPB7]
protein stability index (doa10∆): 1.9 ± 0.11 | protein stability index (pdr5∆): 2.48 ± 0.16 | protein stability index (san1∆): 2.11 ± 0.1 | protein stability index (ubr1∆): 2.17 ± 0.15

NENDSQAIITERLVEFS [YIL149C/MLP2]
protein stability index (doa10∆): 3.2 ± 0.095 | protein stability index (pdr5∆): 3.15 ± 0.085 | protein stability index (san1∆): 2.83 ± 0.087 | protein stability index (ubr1∆): 2.87 ± 0.051

DDIINNDEPSHKKIKVA [SIR2]
protein stability index (doa10∆): 2.77 ± 0.052 | protein stability index (pdr5∆): 2.84 ± 0.037 | protein stability index (san1∆): 2.64 ± 0.041 | protein stability index (ubr1∆): 2.87 ± 0.042

IKQTFKNDLFVIWSEDN [RPO21]
protein stability index (doa10∆): 2.13 ± 0.057 | protein stability index (pdr5∆): 2.32 ± 0.063 | protein stability index (san1∆): 2.31 ± 0.058 | protein stability index (ubr1∆): 2.36 ± 0.056

KFPETSYPILNESSTFL [SIN4]
protein stability index (doa10∆): 2.47 ± 0.04 | protein stability index (pdr5∆): 2.71 ± 0.034 | protein stability index (san1∆): 2.58 ± 0.042 | protein stability index (ubr1∆): 2.64 ± 0.032
